Experimental data as given in publication PMC6209228, “Crystal structure and functional characterization of a cold-active acetyl xylan esterase (PbAcE) from psychrophilic soil microbe Paenibacillus sp” (PLoS ONE, 2018).

How the values were obtained:
[1] = molecular target: cold-active acetyl xylan esterase (PbAcE) from Paenibacillus sp. R4 (Paenibacillus sp. R4); test: AUC; sedimentation velocity, 20°C, 0.5 mg/ml PbAcE, 20 mM Tris-HCl pH 8.0, 150 mM NaCl, 45,000 rpm, SEDFIT
PbAcE = molecular target: T1, PbAcE (Paenibacillus sp. R4, UniProt A0A452CSP2); test: p-nitrophenol release at […] nm, initial rates, double reciprocal plot; assay type: biochemical; conditions: 20 mM Tris-HCl, 150 mM NaCl, pH 7.4; free enzyme
T1 construct: gene cloned in pET-28a (NdeI/XhoI), N-terminal His6 tag cut by thrombin, E. coli BL21(DE3); ~36 kDa monomer, hexamer 234 kDa; 1896 residues modelled in six chains; primers encode N-terminus MPNVDMP and C-terminus IEAYL; catalytic triad Ser185, Asp274, His303

purified protein = substrate: CCCC(=O)Oc1ccc([N+](=O)[O-])cc1; test: purified protein; assay type: biochemical, Paenibacillus sp. R4; conditions: 20 mM Tris-HCl, 150 mM NaCl, pH 7.4, free enzyme

Molecule: cold-active acetyl xylan esterase (PbAcE) from Paenibacillus sp. R4 (enzyme)
- stoichiometry N [1]: 6

Molecule: CC(=O)Oc1ccc([N+](=O)[O-])cc1 [pNP-C2, p-nitrophenyl acetate]
- Km (PbAcE): initial kinetic studies were performed for pNP-C2 and pNP-C4

B1: PbAcE (Paenibacillus sp. R4) (protein)
chain: MPNVDMPLSQLQDYKPELTNETDFDLFWDNAKALSNQKPLHAQVNLVQDYPLKSISIYDVVYDGADGTPIHGWYVTPKGEHQPGSLPVLVKYHGYSGNRGYPNELLQWASMGMAALAIDVRGQGGVTPDRAEYPQGGIPGWMTLGILDPASYYYKQVYLDCIRALDFVCSREEVDASRIAVYGGSQGGGLALAAAGLDSRPKLALPVFPFLCHFRRSVEIHASGPYVEIKNWFRRYDPEHRQEEQVYRTLSYFDGMNMASRIKARTLMAITLQDITCPPSTCFAAYNHLAGPKEVRLYHDYGHEGLPFHEEAMMRFIEAYL
notes: gene cloned in pET-28a (NdeI/XhoI), N-terminal His6 tag cut by thrombin, E. coli BL21(DE3); ~36 kDa monomer, hexamer 234 kDa; 1896 residues modelled in six chains; primers encode N-terminus MPNVDMP and C-terminus IEAYL; catalytic triad Ser185, Asp274, His303
- Km (purified protein): 1230 ± 330 µM
- kcat (purified protein): 0.19 ± 0.02 s⁻¹
